Assay results reported in PMC8487046.

Biological target: acetylated BSA (AcBSA) (bovine (from the name BSA)) (UniProt P02769)
Test: SPR; AcBSA immobilized (900 RU, CM5, amine coupling; BSA as reference surface), serially diluted SREC-II(44-442) or SR-F1(20-421) injected; TBS-Ca-P; 20 µL/min; 25 °C; global fit, 1:1 Langmuir model; apparent KD

Kd: 0.79 µM
koff: 0.0015 s⁻¹
kon: 2000 M⁻¹ s⁻¹
B1: SR‐F1(20‐421), SR‐F1 ectodomain (domain or fragment)
chain: SELDPKGQHVCVASSPSAELQCCAGWRQKDQECTIPICEGPDACQKDEVCVKPGLCRCKPGFFGAHCSSRCPGQYWGPDCRESCPCHPHGQCEPATGACQCQADRWGARCEFPCACGPHGRCDPATGVCHCEPGWWSSTCRRPCQCNTAAARCEQATGACVCKPGWWGRRCSFRCNCHGSPCEQDSGRCACRPGWWGPECQQQCECVRGRCSAASGECTCPPGFRGARCELPCPAGSHGVQCAHSCGRCKHNEPCSPDTGSCESCEPGWNGTQCQQPCLPGTFGESCEQQCPHCRHGEACEPDTGHCQRCDPGWLGPRCEDPCPTGTFGEDCGSTCPTCVQGSCDTVTGDCVCSAGYWGPSCNASCPAGFHGNNCSVPCECPEGLCHPVSGSCQPGSGSRDT
